Test results: publication PMC8545396
Values joined by “and” are separate entries in the source; they are usually repeats but may differ in a detail not shown here. Identical values can stand only once. Like-named read-outs stand apart in the source and are kept apart here.

Experiments:
[1] = biological target: M2-mCherry2 (mCherry2 fused to the extracellular terminus of matrix protein 2 from influenza A/chicken/FPV/Rostock/1934) (influenza A/chicken/FPV/Rostock/1934)
[2] = biological target: M2-mCherry2 (mCherry2 fused to the extracellular terminus of matrix protein 2 from influenza A/chicken/FPV/Rostock/1934) (influenza A/chicken/FPV/Rostock/1934); remark: listed apart in the source
[3] = biological target: PA-mEYFP (IAV polymerase acidic protein, influenza A/human/WSN/1933) (influenza A/human/WSN/1933) (UniProt P15659)
[4] = biological target: PB2-mCherry2 (IAV polymerase basic protein 2, influenza A/human/WSN/1933) (influenza A/human/WSN/1933)
[5] = biological target: PB1-mEGFP (IAV polymerase basic protein 1, influenza A/human/WSN/1933) (influenza A/human/WSN/1933)
[6] = biological target: PA-mEYFP (IAV polymerase acidic protein, influenza A/human/WSN/1933) (influenza A/human/WSN/1933) (UniProt P15659); remark: listed apart in the source
[7] = biological target: PB2-mCherry2 (IAV polymerase basic protein 2, influenza A/human/WSN/1933) (influenza A/human/WSN/1933); remark: listed apart in the source

With “LC3-mEYFP (from UniProt Q62625 1-120) (natural protein)” the relative cross-correlation (rel.cc.) [1] was 0.52 and the stoichiometry N [2] was 0.5 LC3:M2 and 0.25 LC3:M2.
“M2-mCherry2 (mCherry2 fused to the extracellular terminus of matrix protein 2 from influenza A/chicken/FPV/Rostock/1934) (natural protein)” showed a normalized molecular brightness [1] of 2.24 and a stoichiometry N [1] of 3.1.
Substance “PA-mEYFP (IAV polymerase acidic protein, influenza A/human/WSN/1933) (from UniProt P15659 1-716) (natural protein)” has a stoichiometry N [3] of 1.8 and a relative cross-correlation (rel.cc.) [4] of 0.39.
For “PB1-mEGFP (IAV polymerase basic protein 1, influenza A/human/WSN/1933) (natural protein)”, the stoichiometry N [5] was 2.1, the relative cross-correlation (rel.cc.) [6] was 0.93 and the relative cross-correlation (rel.cc.) [4] was 0.47.
With “PB2-mCherry2 (IAV polymerase basic protein 2, influenza A/human/WSN/1933) (natural protein)” the stoichiometry N [7] was 2.2.
